Target: 重组NT抗原(自产，130410) (human) (UniProt P16860)
Assay: BLI, antibody captured on AMC sensor, antigen in solution

Chain of UniProt P16860 (P16860 27-102): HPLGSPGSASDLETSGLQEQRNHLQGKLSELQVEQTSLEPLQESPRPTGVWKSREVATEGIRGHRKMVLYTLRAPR

B1: WT 1-5 (antibody, from another filing)
heavy: QVRLQESGPSQVKPAQTLSLTCAISGPSLTTYYLDWVRHTPGKPPEWLAQMTKDANAVHNPTVRSRLSITRDTSKSQVFLKLTGVTTEDTAVYYCVKGLIDFGPGLLVTVSSASTTPPKVYPLTSCCGDTSSSIVTLGCLVSSYMPEPVTVTWNSGALTSGVHTFPAILQSSGLYSLSSVVTVPASTSGAQTFICNVAHPASSTKVDKRVEPGCPDPCKHCRCPPPELPGGPSVFIFPPKPKDTLTISGTPEVTCVVVDVGQDDPEVQFSWFVDNVEVRTARTKPREEQFNSTFRVVSALPIQHQDWTGGKEFKCKVHNEGLPAPIVRTISRTKGQAREPQVYVLAPPQEELSKSTLSVTCLVTGFYPDYIAVEWQKNGQPESEDKYGTTTSQLDADGSYFLYSRLRVDKNSWQEGDTYACVVMHEALHNHYTQKSISKPPGK
light: QAVLTQPSSVSRSLGQTVSITCSGSSDQVGPGDYLNWFQLIPGSAPKTLIFAASSRIRGVPDRFSGSRSGNTATLTINSLQAEDEADYYCGSANSRNYVWGSGTRLTVLSQPKSAPSVTLFPPSKEELDTNKATVVCLISDFYPGSVNVVWKADGSTINQNVKTTQASKQSNSKYAASSYLTLTGSEWKSKSSYTCEVTHEGSTVTKTVKPSECS
Kd: 5.31 nM

B2: WT 1-6 (antibody, from another filing, V domains shown)
VH: QVRLQESGPSQVKPAQTLSLTCAISGPSITTYYVDWVRHTPGKPPEWLAQMTKDANAVHQPTIRSRLSITRDTSKSQVFLKLTGVTTEDTAVYYCVKGLIDWGPGLLVTVSS
V domain: QAVLTQPSSVSRSLGQTVSITCSGSSDQVGPGDYLNWFQLIPGSAPKTLIFAASSRLRGVPDRFSGSRSGNTATLTINSLQAEDEADYYCGSANSRGGYVWGSGTRLTVLS
Kd: 5.25 nM

B3: WT 1-7 (antibody, from another filing, V domains shown)
VH: QVRLQESGPSQVKPAQTLSLTCAISGPSVTTYYLDWVRHTPGKPPEWLAQMTKDANAVHQPTVRSRLSITRDTSKSQVFLKLTGVTTEDTAVYYCVKGVIDWGPGLLVTVSS
V domain: QAVLTQPSSVSRSLGQTVSITCSGSSDNVGPGDYINWFQLIPGSAPKTLIFAAYSRLRGVPDRFSGSRSGNTATLTINSLQAEDEADYYCGSGNSRGGYVWGSGTRLTVLS
Kd: 6.76 nM

B4: WT 1-8 (antibody, from another filing, V domains shown)
VH: QVRLQESGPSQVKPAQTLSLTCAISGPSLTTYYVDWVRHTPGKPPEWLAQMTKDANAVHQPTVRSRLSITRDTSKSQVFLKLTGVTTEDTAVYYCVKGIIDWGPGLLVTVSS
V domain: QAVLTQPSSVSRSLGQTVSITCSGSSDNVGPGDYINWFQLIPGSAPKTLIFAAYSRVRGVPDRFSGSRSGNTATLTINSLQAEDEADYYCGSPNSRNYVWGSGTRLTVLS
Kd: 8.36 nM

B5: WT 1-9 (antibody, from another filing, V domains shown)
VH: QVRLQESGPSQVKPAQTLSLTCAISGPSVTTYYIDWVRHTPGKPPEWLAQMTKDANAVHQPTLRSRLSITRDTSKSQVFLKLTGVTTEDTAVYYCVKGLIDWGPGLLVTVSS
V domain: QAVLTQPSSVSRSLGQTVSITCSGSSDNVGPGDYVNWFQLIPGSAPKTLIFAAYSRLRGVPDRFSGSRSGNTATLTINSLQAEDEADYYCGSGNSRGGYVWGSGTRLTVLS
Kd: 7.55 nM

B6: WT 1-1 (antibody, from another filing, V domains shown)
VH: QVRLQESGPSQVKPAQTLSLTCAISGPSVTTYYIDWVRHTPGKPPEWLAQMTKDANAVHNPTIRSRLSITRDTSKSQVFLKLTGVTTEDTAVYYCVKGVIDWGPGLLVTVSS
V domain: QAVLTQPSSVSRSLGQTVSITCSGSSDNVGPGDYINWFQLIPGSAPKTLIFAAYSRIRGVPDRFSGSRSGNTATLTINSLQAEDEADYYCGSANSRNYVWGSGTRLTVLS
Kd: 6.25 nM

B7: WT 1-2 (antibody, from another filing, V domains shown)
VH: QVRLQESGPSQVKPAQTLSLTCAISGPSLTTYYIDWVRHTPGKPPEWLAQMTKDANAVHQPTLRSRLSITRDTSKSQVFLKLTGVTTEDTAVYYCVKGVIDWGPGLLVTVSS
V domain: QAVLTQPSSVSRSLGQTVSITCSGSSDNVGPGDYLNWFQLIPGSAPKTLIFAASSRIRGVPDRFSGSRSGNTATLTINSLQAEDEADYYCGSPNSRNYVWGSGTRLTVLS
Kd: 6.74 nM

B8: WT 1-4 (antibody, from another filing)
heavy: QVRLQESGPSQVKPAQTLSLTCAISGPSVTTYYVDWVRHTPGKPPEWLAQMTKDANAVHQPTLRSRLSITRDTSKSQVFLKLTGVTTEDTAVYYCVKGVIDFGPGLLVTVSSASTTPPKVYPLTSCCGDTSSSIVTLGCLVSSYMPEPVTVTWNSGALTSGVHTFPAILQSSGLYSLSSVVTVPASTSGAQTFICNVAHPASSTKVDKRVEPGCPDPCKHCRCPPPELPGGPSVFIFPPKPKDTLTISGTPEVTCVVVDVGQDDPEVQFSWFVDNVEVRTARTKPREEQFNSTFRVVSALPIQHQDWTGGKEFKCKVHNEGLPAPIVRTISRTKGQAREPQVYVLAPPQEELSKSTLSVTCLVTGFYPDYIAVEWQKNGQPESEDKYGTTTSQLDADGSYFLYSRLRVDKNSWQEGDTYACVVMHEALHNHYTQKSISKPPGK
light: QAVLTQPSSVSRSLGQTVSITCSGSSDQVGPGDYVNWFQLIPGSAPKTLIFAATSRIRGVPDRFSGSRSGNTATLTINSLQAEDEADYYCGSGNSRGGYVWGSGTRLTVLSQPKSAPSVTLFPPSKEELDTNKATVVCLISDFYPGSVNVVWKADGSTINQNVKTTQASKQSNSKYAASSYLTLTGSEWKSKSSYTCEVTHEGSTVTKTVKPSECS
Kd: 9.63 nM
